In the supplement of paper PMC7125110:
± gives the standard error. Fewer inactive variants are shown than the library holds.

B1: glmS ribozyme (parent)
chain: AUAAAAGCGCCAGAACUACAGAAAUGUAGUUGACGAGGAGGAGGUUUAUCGAAUUUUCGGCGGAUGCCUCCAAA

What was measured:
Conditions in all cases: with glucosamine-6-phosphate
[1] = variants of: B1; test: self-cleavage kobs at 640 uM GlcN6P; higher = faster cleavage; RNA array
Summary of the method: (§1)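 Ribozyme variants carrying barcodes were transcribed in situ on sequenced MiSeq chips by E. coli RNA polymerase and tracked at 37 °C with a hybridised Cy3 probe. They were exposed to 40 μM to 10 mM glucosamine-6-phosphate in HEPES/KCl/Mg(OAc)2 buffer. kobs came from exponential decay fits of normalised per-tile medians, and kcat and KM from weighted Michaelis–Menten fits.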

[2] = variants of: B1; test: self-cleavage kobs at 2500 uM GlcN6P; higher = faster cleavage; RNA array
Summary of the method: as §1

[3] = variants of: B1; test: self-cleavage kobs at 10000 uM GlcN6P; higher = faster cleavage; RNA array
Summary of the method: as §1

Variant | self-cleavage kobs at 640 uM GlcN6P [1] [s⁻¹] | self-cleavage kobs at 2500 uM GlcN6P [2] [s⁻¹] | self-cleavage kobs at 10000 uM GlcN6P [3] [s⁻¹]
AUAAAAGCGCCAGAACUACAGAAAUGUAGUUGACGAGGAGGAACUUUAUCGAAUUUUCGGCGGAUGACUACAAA [G43A G44C C67A C70A] | < 1e-05 | < 1e-05 | 
AUAAAAGCGCCAGAACUACAGAAAUGUAGUUGACGAGGAGGUGCUUUAUCGCAUUUGCGGCGGAAGCCCCCAAA [A42U G44C A52C U57G U65A U69C] | < 1e-05 | < 1e-05 | 
AUAAAAGCGCCAGAACUACAGAAAUGUAGUUGACGAGGAGGGGGUUUAUCGAAUCUUCGGCGGAUUCCUCCAAA [A42G U55C G66U] | 0.000398 ± 7.7e-05 | 0.000634 ± 0.00014 | 0.00167 ± 0.00029
AUAAAAGCGCCAGAACUACAGAAAUGUAGUUGACGAGGAGGGGGCUUAUCGAAUUUUCCGCUGAUGCUUCCAAA [A42G U45C G59C G62U C68U] | < 1e-05 |  | 
AUAAAAGCGCCAGAACUACAGAAAUGUAGUUGACGAGGAGUAGGUUGAUCGAUUUUUCGGCGGAUGCCUCCAAA [G41U U47G A53U] | 9.96e-05 ± 2.8e-05 | 0.000276 ± 6.9e-05 | 
AUAAAAGCGCCAGAACUACAGAAAUGUAGUUGACGAGGAGUAGGUUUAUAGAAUUUUCGGCGGAAGCCUCCAAA [G41U C50A U65A] | < 1e-05 |  | 
AUAAAAGCGCCAGAACUACAGAAAUGUAGUUGACGAGGAGAAGGUUUAUCGAAAUUUCGGCGGAUGCCUCCAAA [G41A U54A] | 0.000113 ± 2.9e-05 | 0.000311 ± 8.8e-05 | 0.000101 ± 2.1e-05
AUAAAAGCGCCAGAACUACAGAAAUGUAGUUGACGAGGAGGACAUUUAUCGAAUUUUCGGCGGAUGCAUCCAAA [G43C G44A C68A] | < 1e-05 | < 1e-05 | 
AUAAAAGCGCCAGAACUACAGAAAUGUAGUUGACGAGGAGCAGGUUUAUCGAAUUUUCGGCGCUUGCCUCCAAA [G41C G63C A64U] | < 1e-05 | < 1e-05 | 
AUAAAAGCGCCAGAACUACAGAAAUGUAGUUGACGAGGAGGUGGUUAAUCGAACUUUCGGCGGAUGCCUCCAAA [A42U U47A U54C] | 3.85e-05 ± 9.6e-06 |  | 
AUAAAAGCGCCAGAACUACAGAAAUGUAGUUGACGAGGAGGAUGUUUAUCGCAUUUUCGGCGGAUCCGUCCAAA [G43U A52C G66C C68G] | < 1e-05 | < 1e-05 | 
AUAAAAGCGCCAGAACUACAGAAAUGUAGUUGACGAGGAGGAAGAUUAUCGAUUUUUCGGCCGUUGCCUCCAAA [G43A U45A A53U G62C A64U] | < 1e-05 | < 1e-05 | 
AUAAAAGCGCCAGAACUACAGAAAUGUAGUUGACGAGGAGGACGUUUAUCGAAUUUUCGGCGGAUGCCGCCAAA [G43C U69G] | < 1e-05 |  | < 1e-05
AUAAAAGCGCCAGAACUACAGAAAUGUAGUUGACGAGGAGGGGGUUUAUCGAAUUUUCGGCGGGUGCCUCGAAA [A42G A64G C71G] | 0.000615 ± 0.00014 | 0.00107 ± 0.0003 | 0.000757 ± 0.00025
AUAAAAGCGCCAGAACUACAGAAAUGUAGUUGACGAGGAGGGAGUGUAUCGAAUUUUCGGCGGAUUCCUCCAAA [A42G G43A U46G G66U] | < 1e-05 | < 1e-05 | 
AUAAAAGCGCCAGAACUACAGAAAUGUAGUUGACGAGGAGGCGGUUUAUCGAAUUUUCGGUGGAUGCGUCUAAA [A42C C61U C68G C71U] | < 1e-05 |  | 
AUAAAAGCGCCAGAACUACAGAAAUGUAGUUGACGAGGAGGCGGUUUAUCGAUUUGUCGGCGGAUGCCUCCAAA [A42C A53U U56G] | < 1e-05 |  | 
AUAAAAGCGCCAGAACUACAGAAAUGUAGUUGACGAGGAGUAGGUUUAUCGAUUUUUCGGCGGAUGCCGCCAAA [G41U A53U U69G] | < 1e-05 |  | 
AUAAAAGCGCCAGAACUACAGAAAUGUAGUUGACGAGGAGAAGGUUUAUCGAAUUUUCGGCGGAGGCCUCCAAA [G41A U65G] | < 1e-05 |  | 
AUAAAAGCGCCAGAACUACAGAAAUGUAGUUGACGAGGAGGGACUUUAUCGAAUUUUCGGCGGAUGCCUCCAAA [A42G G43A G44C] | < 1e-05 | < 1e-05 | 
AUAAAAGCGCCAGAACUACAGAAAUGUAGUUGACGAGGAGCAGGUAUAUCGAAUUUUCGCCGGAUGCCUCCAAA [G41C U46A G60C] | < 1e-05 | < 1e-05 | 
AUAAAAGCGCCAGAACUACAGAAAUGUAGUUGACGAGGAGCAGGGUUAUCGAAUUUUCGGCGGAUGCCUCUAAA [G41C U45G C71U] | 4.68e-05 ± 1.6e-05 | 0.000157 ± 3.9e-05 | 

Variant | self-cleavage kobs at 640 uM GlcN6P [1] [s⁻¹] | self-cleavage kobs at 2500 uM GlcN6P [2] [s⁻¹] | self-cleavage kobs at 10000 uM GlcN6P [3] [s⁻¹]
AUAAAAGCGCCAGAACUACAGAAAUGUAGUUGACGAGGAGGGGGUUUAUCUAAUUUUCGGCGGAUGCCUUCAAA [A42G G51U C70U] | < 1e-05 |  | 
AUAAAAGCGCCAGAACUACAGAAAUGUAGUUGACGAGGAGGACGUUUAUAGAAUUUUCGGCGGAUGCCUCCAAA [G43C C50A] | < 1e-05 | < 1e-05 | 
AUAAAAGCGCCAGAACUACAGAAAUGUAGUUGACGAGGAGGAAGUUUGUCGAUUUUUCGGCCGAUGCCUCCAAA [G43A A48G A53U G62C] | < 1e-05 |  | 
AUAAAAGCGCCAGAACUACAGAAAUGUAGUUGACGAGGAGCAGGUUUAUGCAAUUUUCGGCGGAUGCCUCCAAA [G41C C50G G51C] | < 1e-05 |  | 
AUAAAAGCGCCAGAACUACAGAAAUGUAGUUGACGAGGAGGCGGUUGAUCGAAUUUCCGGCGGAUGCCUCCAAA [A42C U47G U57C] | < 1e-05 | < 1e-05 | 
AUAAAAGCGCCAGAACUACAGAAAUGUAGUUGACGAGGAGGCGGUUUACCGAAUUUUUGGCGGAUGCCUCCAAA [A42C U49C C58U] | < 1e-05 | < 1e-05 | 
AUAAAAGCGCCAGAACUACAGAAAUGUAGUUGACGAGGAGGAAGUUAAUCGACUUUUCCGCGGAUGCCUCCAAA [G43A U47A A53C G59C] | < 1e-05 | < 1e-05 | 
AUAAAAGCGCCAGAACUACAGAAAUGUAGUUGACGAGGAGAAGGUUUAUCGAAUUUCCGGCGGAUGACUCCAAA [G41A U57C C67A] | < 1e-05 | < 1e-05 | 
AUAAAAGCGCCAGAACUACAGAAAUGUAGUUGACGAGGAGGAAGUUUAUCGAGUUUUCGUCGGAUGCCUCCAAA [G43A A53G G60U] | < 1e-05 | < 1e-05 | 
AUAAAAGCGCCAGAACUACAGAAAUGUAGUUGACGAGGAGGAAGUUUAUCGAAUUUUCGGCGGUUGACUCCAAA [G43A A64U C67A] | < 1e-05 |  | 
AUAAAAGCGCCAGAACUACAGAAAUGUAGUUGACGAGGAGGCGGUUUAGCGAAUUUUAGGCGGAUGCCUCCAAA [A42C U49G C58A] | < 1e-05 | < 1e-05 | 
AUAAAAGCGCCAGAACUACAGAAAUGUAGUUGACGAGGAGGUGGUUUAUCGAAUUUUCGGCGGAUGCCCCCAAA [A42U U69C] | 0.0106 ± 0.0031 | 0.00357 ± 0.0013 | 
AUAAAAGCGCCAGAACUACAGAAAUGUAGUUGACGAGGAGGGGGUUUAUCGAAUGUUCGGCGGGUGCCUCGAAA [A42G U55G A64G C71G] | 0.000116 ± 3.7e-05 | 5.98e-05 ± 2e-05 | 
AUAAAAGCGCCAGAACUACAGAAAUGUAGUUGACGAGGAGGCGGUUUAUCGAAUUUUCGGCGGAUGUCUCGAAA [A42C C67U C71G] | < 1e-05 |  | 
AUAAAAGCGCCAGAACUACAGAAAUGUAGUUGACGAGGAGGUGGUUUAUCGAAUUUUCGGCGGAUGCCCACAAA [A42U U69C C70A] | 0.0004 ± 0.00011 | 0.000308 ± 9.7e-05 | 
AUAAAAGCGCCAGAACUACAGAAAUGUAGUUGACGAGGAGGCGGUUUAUCGAAUUUUCGGGGGAUGCCUACAAA [A42C C61G C70A] | < 1e-05 | < 1e-05 | < 1e-05
AUAAAAGCGCCAGAACUACAGAAAUGUAGUUGACGAGGAGGAAGUUUAUCGAAUGUUCGGUCGAUGCCUCCAAA [G43A U55G C61U G62C] | < 1e-05 |  | 
AUAAAAGCGCCAGAACUACAGAAAUGUAGUUGACGAGGAGGACGUUUAUCUAAUUUUCGGGGGAUGCCUCCAAA [G43C G51U C61G] | < 1e-05 | < 1e-05 | 
AUAAAAGCGCCAGAACUACAGAAAUGUAGUUGACGAGGAGUAGGUGUCCCGAAUUUUCGGCGGAUGCCUCCAAA [G41U U46G A48C U49C] | < 1e-05 |  | 
AUAAAAGCGCCAGAACUACAGAAAUGUAGUUGACGAGGAGUAUGCUUAUCGAUUUUUCGGCGGAUGCCUCUAAA [G41U G43U U45C A53U C71U] | < 1e-05 | < 1e-05 | 
AUAAAAGCGCCAGAACUACAGAAAUGUAGUUGACGAGGAGCAGGUUUUUCGAAUUUUCGGCGGAUGCCUCUAAA [G41C A48U C71U] | < 1e-05 |  | 
